The record followed here is PMC12586598 (2025).

Targets include K4; K3; K2; linear peptide K1.
Holding throughout (assay): SPR
Assay [1] has as its target long-acting C5a-blocking cyclic peptide drug Cp1 (head-tail cyclization of the linear peptide K1).

B1: mouse C5 (natural protein)
chain 1: QEQTYVISAPKILRVGSSENVVIQVHGYTEAFDATLSLKSYPDKKVTFSSGYVNLSPENKFQNAALLTLQPNQVPREESPVSHVYLEVVSKHFSKSKKIPITYNNGILFIHTDKPVYTPDQSVKIRVYSLGDDLKPAKRETVLTFIDPEGSEVDIVEENDYTGIISFPDFKIPSNPKYGVWTIKANYKKDFTTTGTAYFEIKEYVLPRFSVSIELERTFIGYKNFKNFEITVKARYFYNKVVPDAEVYAFFGLREDIKDEEKQMMHKATQAAKLVDGVAQISFDSETAVKELSYNSLEDLNNKYLYIAVTVTESSGGFSEEAEIPGVKYVLSPYTLNLVATPLFVKPGIPFSIKAQVKDSLEQAVGGVPVTLMAQTVDVNQETSDLETKRSITHDTDGVAVFVLNLPSNVTVLKFEIRTDDPELPEENQASKEYEAVAYSSLSQSYIYIAWTENYKPMLVGEYLNIMVTPKSPYIDKITHYNYLILSKGKIVQYGTREKLFSSTYQNINIPVTQNMVPSARLLVYYIVTGEQTAELVADAVWINIEEKCGNQLQVHLSPDEYVYSPGQTVSLDMVTEADSWVALSAVDRAVYKVQGNAKRAMQRVFQALDEKSDLGCGAGGGHDNADVFHLAGLTFLTNANADDSHYRDDSCKEIL
chain 2: NLHLLRQKIEEQAAKYKHSVPKKCCYDGARVNFYETCEERVARVTIGPLCIRAFNECCTIANKIRKESPHKPVQLGRIHIKTLLPVMKADIRSYFPESWLWEIHRVPKRKQLQVTLPDSLTTWEIQGIGISDNGICVADTLKAKVFKEVFLEMNIPYSVVRGEQIQLKGTVYNYMTSGTKFCVKMSAVEGICTSGSSAASLHTSRPSRCVFQRIEGSSSHLVTFTLLPLEIGLHSINFSLETSFGKDILVKTLRVVPEGVKRESYAGVILDPKGIRGIVNRRKEFPYRIPLDLVPKTKVERILSVKGLLVGEFLSTVLSKEGINILTHLPKGSAEAELMSIAPVFYVFHYLEAGNHWNIFYPDTLSKRQSLEKKIKQGVVSVMSYRNADYSYSMWKGASASTWLTAFALRVLGQVAKYVKQDENSICNSLLWLVEKCQLENGSFKENSQYLPIKLQGTLPAEAQEKTLYLTAFSVIGIRKAVDICPTMKIHTALDKADSFLLENTLPSKSTFTLAIVAYALSLGDRTHPRFRLIVSALRKEAFVKGDPPIYRYWRDTLKRPDSSVPSSGTAGMVETTAYALLASLKLKDMNYANPIIKWLSEEQRYGGGFYSTQDTINAIEGLTEYSLLLKQIHLDMDINVAYKHEGDFHKYKVTEKHFLGRPVEVSLNDDLVVSTGYSSGLATVYVKTVVHKISVSEEFCSFYLKIDTQDIEASSHFRLSDSGFKRIIACASYKPSKEESTSGSSHAVMDISLPTGIGANEEDLRALVEGVDQLLTDYQIKDGHVILQLNSIPSRDFLCVRFRIFELFQVGFLNPATFTVYEYHRPDKQCTMIYSISDTRLQKVCEGAACTCVEADCAQLQAEVDLAISADSRKEKACKPETAYAYKVRITSATEENVFVKYTATLLVTYKTGEAADENSEVTFIKKMSCTNANLVKGKQYLIMGKEVLQIKHNFSFKYIYPLDSSTWIEYWPTDTTCPSCQAFVENLNNFAEDLFLNSCE
Turning to B1, in assay [1], the affinity, expressed as Kd, was 0.712 µM and the koff came out at 0.0745 s⁻¹.

B2: human C5a protein (ligand)
chain: TLQKKIEEIAAKYKHSVVKKCCYDGACVNNDETCEQRAARISLGPRCIKAFTECCVVASQLRANISHKDMQLGR
In the case of B2, in assay [1], binding was characterised by a dissociation constant (Kd) of 7.41 µM and the koff was 0.395 s⁻¹.

B3: mouse C5a protein (ligand)
chain: NLHLLRQKIEEQAAKYKHSVPKKCCYDGARVNFYETCEERVARVTIGPLCIRAFNECCTIANKIRKESPHKPVQLGR
Consider B3, for which the Kd in assay [1] was found to be 5.63 µM; in the assay with K4, 2.38 µM; with K3, 7.12 µM; in the assay with K2, 53.6 µM; with linear peptide K1, 2.85 µM. The koff with K4 is 0.0299 s⁻¹; with K3, 0.392 s⁻¹; with K2, 0.00405 s⁻¹; in the assay with linear peptide K1 it was 0.00586 s⁻¹.

B4: mouse C5a-desArg (ligand)
chain: NLHLLRQKIEEQAAKYKHSVPKKCCYDGARVNFYETCEERVARVTIGPLCIRAFNECCTIANKIRKESPHKPVQLGR
B4 came in with a Kd in assay [1] of 3.58 µM. That is a single-digit micromolar value.
